The text below walks through data of patent US20160229915A1 (Chugai, published 2016).

In general, Kd refers to the constant that tells how readily two partners part at equilibrium. A low value points to tighter binding.

Assay [1] addresses T1, mouse FcRn (mouse, UniProt Q61559 22-297).
T1 construct: also called mFcRn
Put plainly: SPR (Biacore), antibody captured by protein L, mouse FcRn as analyte, pH 6.0, 25 C. The method, then: (§1) Next, the binding to mFcRn was evaluated according to Reference Example 4-4.
(§2) Kinetic analysis was conducted on mouse FcRn and each antibody using Biacore T100, Biacore T200, Biacore A100, and Biacore 4000 (GE Healthcare Japan Corp.). An appropriate amount of protein L (ACTIGEN) was immobilized on Sensor Chip CM4 (GE Healthcare Japan Corp.) by the amine coupling method. The antibody of interest was captured onto the chip. Next, a diluted FcRn solution or a running buffer (as a control solution) was injected thereto so that the mouse FcRn was allowed to interact with the antibody captured on the sensor chip. The running buffer used was 50 mmol/L sodium phosphate, 150 mmol/L NaCl, and 0.05% (w/v) Tween 20 (pH 6.0), and each buffer was also used for diluting FcRn. 10 mmol/L glycine-HCl (pH 1.5) was used to regenerate the chip. The assay was conducted at 25° C. for all samples. From the sensorgram obtained by the assay, an association rate constant ka (1/Ms) and a dissociation rate constant […] (1/s) were calculated as kinetic parameters. The KD (M) of each antibody for mouse FcRn was calculated on the basis of the parameters. Biacore Evaluation Software (GE Healthcare Japan Corp.) was used in the calculation of each parameter.
A general note: SPR reads the build-up and loss of mass on a sensor chip optically.

Assay [2] concerns the target T2, mouse FcgRII extracellular domain, C-terminal His tag (mouse, UniProt P08101 30-210).
T2 construct: extracellular domain; also called mFcgRII; mFcγRII; not shown: C-terminal His tag
T2 sequence (looked up): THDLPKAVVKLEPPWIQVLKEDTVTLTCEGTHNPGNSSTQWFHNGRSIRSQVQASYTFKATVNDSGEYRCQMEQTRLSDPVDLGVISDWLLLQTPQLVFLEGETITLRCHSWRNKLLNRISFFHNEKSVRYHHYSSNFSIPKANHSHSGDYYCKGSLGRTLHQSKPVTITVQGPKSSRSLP
The assay can be described thus: SPR (Biacore); binding activity relative to naturally occurring mIgG1. The method, then: (§3) The two types of bispecific antibodies (MRAH-mIgG1mP3/MRAL-mk1//H54-mIgG1mN3/L28-mk1 and MRAH-mIgG1mP4/MRAL-mk1//H54-mIgG1mN4/L28-mk1) prepared by mouse IgG-type Fab arm exchange were tested for their binding to mouse FcgR and mouse FcRn according to Reference Example 4-3. Also, MRAH-mIgG1/MRAL-mk1 was prepared according to Reference Example 1 and assayed as a control.

Assay [3] deals with T3, mouse FcgRIII extracellular domain, C-terminal His tag (mouse, UniProt P08508 31-215).
T3 construct: extracellular domain; also called mFcgRIII; mFcγRIII; not shown: C-terminal His tag
T3 sequence (looked up): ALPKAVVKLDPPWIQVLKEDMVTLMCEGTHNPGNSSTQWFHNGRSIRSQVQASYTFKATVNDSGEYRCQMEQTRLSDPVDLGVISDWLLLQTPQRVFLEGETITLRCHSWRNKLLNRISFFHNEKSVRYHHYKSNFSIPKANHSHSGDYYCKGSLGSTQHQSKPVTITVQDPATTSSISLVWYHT
The assay is described as above. Here is the method: as §3

In assay [4] the target is T4, mouse FcgRI extracellular domain, C-terminal His tag (mouse, UniProt P26151 25-297).
T4 construct: extracellular domain; also called mFcgRI; mFcγRI; not shown: C-terminal His tag
T4 sequence (looked up): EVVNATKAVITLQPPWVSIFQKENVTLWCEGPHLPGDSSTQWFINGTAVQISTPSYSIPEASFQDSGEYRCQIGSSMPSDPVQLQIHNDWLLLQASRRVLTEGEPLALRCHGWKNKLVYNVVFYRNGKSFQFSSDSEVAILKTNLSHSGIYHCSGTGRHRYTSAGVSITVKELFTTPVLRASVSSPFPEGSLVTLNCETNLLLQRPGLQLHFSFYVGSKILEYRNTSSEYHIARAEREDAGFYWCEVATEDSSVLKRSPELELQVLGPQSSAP
Put plainly: SPR (Biacore), antibody captured on chip, mFcgR extracellular domain as analyte. Here is the method:
as §3

In assay [5] the target is T5, mouse FcgRIV extracellular domain, C-terminal His tag (mouse, UniProt A0A0B4J1G0 21-203).
T5 construct: also called mFcgRIV; mFcγRIV
T5 sequence: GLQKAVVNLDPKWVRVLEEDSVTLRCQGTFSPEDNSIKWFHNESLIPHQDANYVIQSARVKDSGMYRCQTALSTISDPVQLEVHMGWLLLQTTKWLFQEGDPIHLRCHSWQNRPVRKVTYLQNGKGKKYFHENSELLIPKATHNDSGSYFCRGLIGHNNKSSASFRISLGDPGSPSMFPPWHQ
The assay is described as above. Here is the method:
as §3

Assay [6] deals with T2, mouse FcgRII extracellular domain, …. The assay can be described thus: SPR (Biacore), antibody captured on chip, His-tagged mFcgR extracellular domain as analyte, 25 C. Here is the method: as §3
Assay [7] deals with T3, mouse FcgRIII extracellular domain, …. The description is as above. Here is the method:
as §3

In assay [8] the target is T1, mouse FcRn. Put plainly: SPR (Biacore); relative to mIgG1. The method, then:
as §1, §2

T1 sequence (Q61559 22-297): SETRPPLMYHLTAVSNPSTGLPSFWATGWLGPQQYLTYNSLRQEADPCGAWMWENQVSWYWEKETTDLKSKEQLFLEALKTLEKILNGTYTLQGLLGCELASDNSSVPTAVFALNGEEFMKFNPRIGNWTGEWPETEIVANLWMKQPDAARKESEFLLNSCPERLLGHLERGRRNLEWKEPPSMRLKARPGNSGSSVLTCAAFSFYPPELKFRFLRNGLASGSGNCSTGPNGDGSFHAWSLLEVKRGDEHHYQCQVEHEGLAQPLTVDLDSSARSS

B1: MRAH-mIgG1mP3/MRAL-mk1//H54-mIgG1mN3/L28-mk1 (bispecific antibody)
heavy 1: QVQLQESGPGLVRPSQTLSLTCTVSGYSITSDHAWSWVRQPPGRGLEWIGYISYSGITTYNPSLKSRVTMLRDTSKNQFSLRLSSVTAADTAVYYCARSLARTTAMDYWGQGSLVTVSSAKTTPPSVYPLAPGSAAQTNSMVTLGCLVKGYFPEPVTVTWNSGSLSSGVHTFPAVLQSDLYTLSSSVTVPSSTWPSETVTCNVAHPASSTKVDKKIVPRDCGCKPCICTVPEVSSVFIFPPKPKDVLTITLTPKVTCVVVDISKDDPEVQFSWFVDDVEVHTAQTQPREEQFNSTFRSVSELPIMHQDWLNGKEFKCRVNSAAFPAPIEKTISKTKGRPKAPQVYTIPPPKEQMAKDKVSLTCMITDFFPEDITVEWQWNGQPAENYKNTQPIMKTDGSYFVYSKLNVQKSNWEAGNTFTCSVLHEGLHNHHTEKSLSHSPGK
light 1: DIQMTQSPSSLSASVGDRVTITCRASQDISSYLNWYQQKPGKAPKLLIYYTSRLHSGVPSRFSGSGSGTDFTFTISSLQPEDIATYYCQQGNTLPYTFGQGTKVEIKRADAAPTVSIFPPSSEQLTSGGASVVCFLNNFYPKDINVKWKIDGSERQNGVLNSWTDQDSKDSTYSMSSTLTLTKDEYERHNSYTCEATHKTSTSPIVKSFNRNEC
heavy 2: QVQLQESGPGLVKPSETLSLTCAVSGYSISDDQAWSWVRQPPGEGLEWIGYISYSGITNYNPSLKGRVTISRDTSKNQFSLKLSSVTAADTAAYYCARSLARTTAMDYWGEGTLVTVSSAKTTPPSVYPLAPGSAAQTNSMVTLGCLVKGYFPEPVTVTWNSGSLSSGVHTFPAVLQSDLYTLSSSVTVPSSTWPSETVTCNVAHPASSTKVDKKIVPRDCGCKPCICTVPEVSSVFIFPPKPKDVLTITLTPKVTCVVVDISKDDPEVQFSWFVDDVEVHTAQTQPREEQFNSTFRSVSELPIMHQDWLNGKEFKCRVNSAAFPAPIEKTISKTKGRPKAPQVYTIPPPKEQMAKDKVSLTCMITDFFPEDITVEWQWNGQPAENYKNTQPIMDTDGSYFVYSDLNVQKSNWEAGNTFTCSVLHEGLHNHHTEKSLSHSPGK
light 2: DIQMTQSPSSLSASVGDSVTITCQASQDISSYLNWYQQKPGKAPELLIYYGSELHSGVPSRFSGSGSGTDFTFTISSLEAEDAATYYCQQGNSLPYTFGQGTKVEIERADAAPTVSIFPPSSEQLTSGGASVVCFLNNFYPKDINVKWKIDGSERQNGVLNSWTDQDSKDSTYSMSSTLTLTKDEYERHNSYTCEATHKTSTSPIVKSFNRNEC
notes: Product of mouse IgG1-type Fab arm exchange (D399K on one H chain, K409D on the other); formation efficiency 89.2%, so the preparation may hold some homo variant; also called mIgG1mP3/mN3; mP3/mN3
As for B1, the values for the Kd in assay [1], in assay [6] and in assay [7] were 2100 nM, 670 nM and 670 nM, respectively. Moreover, in assay [2], the “KD fold mFcgRII” value amounted to 1.2 fold. In assay [3], the “KD fold mFcgRIII” value was 1.2 fold. The binding result in assay [4] and in assay [5] was “no binding” in each case. The “fold KD” value in assay [8] is 1.2 fold.

B2: MRAH-mIgG1mP4/MRAL-mk1//H54-mIgG1mN4/L28-mk1 (bispecific antibody)
heavy 1: QVQLQESGPGLVRPSQTLSLTCTVSGYSITSDHAWSWVRQPPGRGLEWIGYISYSGITTYNPSLKSRVTMLRDTSKNQFSLRLSSVTAADTAVYYCARSLARTTAMDYWGQGSLVTVSSAKTTPPSVYPLAPGSAAQTNSMVTLGCLVKGYFPEPVTVTWNSGSLSSGVHTFPAVLQSDLYTLSSSVTVPSSTWPSETVTCNVAHPASSTKVDKKIVPRDCGCKPCICTVPEVSSVFIFPPKPKDVLTITLTPKVTCVVVDISKDDPEVQFSWFVDDVEVHTAQTQPREEQFNSTFRSVSELPIMHQDWLNGKEFKCRVNSAAFPAPIEKTISKTKGRPKAPQVYTIPPPKEQMAKDKVSLTCMITDFFPEDITVEWQWNGQPAENYKNTQPIMRTDGSYFVYSKLNVQKSNWEAGNTFTCSVLHEGLHNHHTEKSLSHSPGK
light 1: DIQMTQSPSSLSASVGDRVTITCRASQDISSYLNWYQQKPGKAPKLLIYYTSRLHSGVPSRFSGSGSGTDFTFTISSLQPEDIATYYCQQGNTLPYTFGQGTKVEIKRADAAPTVSIFPPSSEQLTSGGASVVCFLNNFYPKDINVKWKIDGSERQNGVLNSWTDQDSKDSTYSMSSTLTLTKDEYERHNSYTCEATHKTSTSPIVKSFNRNEC
heavy 2: QVQLQESGPGLVKPSETLSLTCAVSGYSISDDQAWSWVRQPPGEGLEWIGYISYSGITNYNPSLKGRVTISRDTSKNQFSLKLSSVTAADTAAYYCARSLARTTAMDYWGEGTLVTVSSAKTTPPSVYPLAPGSAAQTNSMVTLGCLVKGYFPEPVTVTWNSGSLSSGVHTFPAVLQSDLYTLSSSVTVPSSTWPSETVTCNVAHPASSTKVDKKIVPRDCGCKPCICTVPEVSSVFIFPPKPKDVLTITLTPKVTCVVVDISKDDPEVQFSWFVDDVEVHTAQTQPREEQFNSTFRSVSELPIMHQDWLNGKEFKCRVNSAAFPAPIEKTISKTKGRPKAPQVYTIPPPKEQMAKDKVSLTCMITDFFPEDITVEWQWNGQPAENYKNTQPIMDTDGSYFVYSELNVQKSNWEAGNTFTCSVLHEGLHNHHTEKSLSHSPGK
light 2: DIQMTQSPSSLSASVGDSVTITCQASQDISSYLNWYQQKPGKAPELLIYYGSELHSGVPSRFSGSGSGTDFTFTISSLEAEDAATYYCQQGNSLPYTFGQGTKVEIERADAAPTVSIFPPSSEQLTSGGASVVCFLNNFYPKDINVKWKIDGSERQNGVLNSWTDQDSKDSTYSMSSTLTLTKDEYERHNSYTCEATHKTSTSPIVKSFNRNEC
notes: Product of mouse IgG1-type Fab arm exchange (D399R on one H chain, K409E on the other); formation efficiency 89.9%, so the preparation may hold some homo variant; also called mIgG1mP4/mN4; mP4/mN4
As to B2, the Kd in assay [1] is 1900 nM; in assay [6], 670 nM; in assay [7], 680 nM. Further, in assay [2], the “KD fold mFcgRII” value is 1.2 fold. The “KD fold mFcgRIII” value in assay [3] came to 1.2 fold. Besides, the binding result in assay [4] and in assay [5] was “no binding” in each case. Besides, the “fold KD” value in assay [8] was determined as 1.3 fold.
